Reference: patent US7005258

Key:
[1] = test system: starfish p34^cdc2, tyrosine-phosphorylated, from G2-arrested oocytes
[2] = target: Xenopus cdc2 (34 kD) (UniProt P24033)
[3] = target: Xenopus cdc2 from prophase oocytes, tyrosine phosphorylated (UniProt P24033)
[4] = target: Xenopus cdc2/cyclin B complex (UniProt P24033)
[5] = target: Xenopus cdc2 (34 kD) (Xenopus laevis) (UniProt P24033); test: co-immunoprecipitation with anti-cdc25 antibody against p13-Sepharose precipitate as total, quantified immunoblot
[6] = target: Xenopus cyclin B2 (Xenopus laevis) (UniProt P13351); test: as above
[7] = target: Xenopus cyclin B2 (Xenopus laevis) (UniProt P13351); test: co-immunoprecipitation, quantified immunoblots
[8] = target: Xenopus cdc2 (34 kD) (Xenopus laevis) (UniProt P24033); test: co-immunoprecipitation, quantified immunoblots, metaphase eggs
[9] = target: GST-cdc25 A fusion protein (glutathione-S-transferase / human cdc25 A) (human) [GST: P08515]; test: cell-based or functional assay

Chain of Xenopus cdc2 (34 kD) (P24033 whole entry): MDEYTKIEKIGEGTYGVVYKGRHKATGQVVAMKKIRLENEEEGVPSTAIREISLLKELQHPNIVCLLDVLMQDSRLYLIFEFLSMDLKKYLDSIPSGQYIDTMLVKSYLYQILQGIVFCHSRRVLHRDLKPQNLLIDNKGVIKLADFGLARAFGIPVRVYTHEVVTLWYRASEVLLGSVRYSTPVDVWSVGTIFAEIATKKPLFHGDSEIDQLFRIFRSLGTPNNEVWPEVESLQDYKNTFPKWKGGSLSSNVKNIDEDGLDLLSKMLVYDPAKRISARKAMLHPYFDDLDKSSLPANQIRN
Chain of Xenopus cdc2 (34 kD) (Xenopus laevis) (P24033 whole entry, the tested form may be a part): as the sequence (P24033 whole entry) above
Chain of Xenopus cdc25 protein (p72) (Q13972 whole entry): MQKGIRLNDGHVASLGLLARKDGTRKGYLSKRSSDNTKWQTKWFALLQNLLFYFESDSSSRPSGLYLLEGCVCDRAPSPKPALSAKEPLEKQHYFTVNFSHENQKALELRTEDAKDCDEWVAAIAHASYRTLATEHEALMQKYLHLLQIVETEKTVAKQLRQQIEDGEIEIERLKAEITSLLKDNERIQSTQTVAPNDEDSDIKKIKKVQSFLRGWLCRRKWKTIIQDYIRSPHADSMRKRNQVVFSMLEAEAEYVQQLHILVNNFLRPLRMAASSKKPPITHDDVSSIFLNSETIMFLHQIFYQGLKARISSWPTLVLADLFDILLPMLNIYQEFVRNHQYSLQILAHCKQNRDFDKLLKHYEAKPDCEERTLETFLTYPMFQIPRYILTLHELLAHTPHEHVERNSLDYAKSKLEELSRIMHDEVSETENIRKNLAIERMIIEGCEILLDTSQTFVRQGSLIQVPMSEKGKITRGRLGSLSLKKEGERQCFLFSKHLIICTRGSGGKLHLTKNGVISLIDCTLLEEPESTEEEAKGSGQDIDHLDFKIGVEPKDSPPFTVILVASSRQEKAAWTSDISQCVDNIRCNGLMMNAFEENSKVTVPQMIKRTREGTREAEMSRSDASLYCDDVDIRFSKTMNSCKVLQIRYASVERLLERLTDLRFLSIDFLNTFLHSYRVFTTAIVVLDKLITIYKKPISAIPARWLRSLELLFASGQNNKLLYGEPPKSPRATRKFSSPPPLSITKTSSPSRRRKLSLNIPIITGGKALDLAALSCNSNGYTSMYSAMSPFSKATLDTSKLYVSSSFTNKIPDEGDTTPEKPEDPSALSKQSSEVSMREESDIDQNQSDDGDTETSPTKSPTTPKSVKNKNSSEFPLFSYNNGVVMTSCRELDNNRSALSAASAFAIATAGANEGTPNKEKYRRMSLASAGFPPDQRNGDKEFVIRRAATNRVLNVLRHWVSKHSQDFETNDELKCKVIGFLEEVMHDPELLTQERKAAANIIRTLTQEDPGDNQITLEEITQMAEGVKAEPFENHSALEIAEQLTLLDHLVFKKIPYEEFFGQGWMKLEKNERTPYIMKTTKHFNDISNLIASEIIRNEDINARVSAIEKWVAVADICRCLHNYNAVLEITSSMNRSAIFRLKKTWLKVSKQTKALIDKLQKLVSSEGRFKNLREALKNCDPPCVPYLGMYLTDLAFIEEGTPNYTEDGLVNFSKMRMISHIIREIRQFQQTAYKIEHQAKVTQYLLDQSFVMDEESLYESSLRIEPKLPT
Chain of Xenopus cyclin B2 (Xenopus laevis) (P13351 whole entry): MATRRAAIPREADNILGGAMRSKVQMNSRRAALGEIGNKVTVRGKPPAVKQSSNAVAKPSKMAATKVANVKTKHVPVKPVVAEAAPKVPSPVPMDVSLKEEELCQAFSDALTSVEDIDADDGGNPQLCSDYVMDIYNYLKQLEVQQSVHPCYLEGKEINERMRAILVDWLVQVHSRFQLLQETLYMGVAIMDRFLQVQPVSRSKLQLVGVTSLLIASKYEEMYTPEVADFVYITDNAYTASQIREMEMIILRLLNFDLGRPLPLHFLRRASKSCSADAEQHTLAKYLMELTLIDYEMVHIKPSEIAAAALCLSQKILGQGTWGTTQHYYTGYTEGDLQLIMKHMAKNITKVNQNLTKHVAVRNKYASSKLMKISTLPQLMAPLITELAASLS
Chain of Xenopus cdc2 from prophase oocytes, tyrosine phosphorylated (P24033 whole entry): as the sequence (P24033 whole entry) above
Chain of Xenopus cdc2/cyclin B complex (P24033 whole entry, chain 1 of 2): as the sequence (P24033 whole entry) above
Chain of Xenopus cdc2/cyclin B complex (chain, as listed by the source, chain 2 of 2): as the sequence (P13351 whole entry) above

GST-cdc25 A fusion protein (glutathione-S-transferase / human cdc25 A)
tyrosine dephosphorylation of p34^cdc2 [1]: Treatment with purified GST-cdc25A protein induced almost complete tyrosine dephosphorylation of p34^cdc2

Xenopus cdc25 protein (p72)
histone H1 kinase activity in anti-cdc25 immunoprecipitates [2]: Histone H1 kinase activity was detected in anti-cdc25 immunoprecipitates from metaphase eggs | histone H1 kinase activity of cdc2 that is inactive in the absence of cyclin (eggs activated in the presence of cycloheximide) [2]: In neither case did p72 have any effect on the histone H1 kinase activity of cdc2 | relative metaphase kinase activity in p13-Sepharose precipitates and anti-cdc25 immunoprecipitates [2]: approximately 20-fold different | histone H1 kinase activity of inactive prophase p13-bound cdc2 [3]: Both prophase and metaphase cdc25 stimulated histone H1 kinase activity 12-fold | histone H1 kinase activity of fully activated cdc2/cyclin from metaphase unfertilized eggs [4]: In neither case did p72 have any effect on the histone H1 kinase activity of cdc2

Xenopus cdc25 protein (p72) (from UniProt Q13972) (enzyme)
fold, cdc2 in p13-Sepharose precipitate over cdc2 in anti-cdc25 immunoprecipitate [5]: 20 fold | fold, cyclin B2 in p13-Sepharose precipitates over cyclin B2 in anti-cdc25 immunoprecipitate [6]: 6 fold | percent of the full cellular content of cdc25 present in anti-cyclin B2 immunoprecipitates [7]: 20% | percent of the total population of cyclin B2 associated with cdc25 [7]: 17% | percent of the cellular content of cdc25 present in anti-cdc2 immunoprecipitates [8]: 20% | percent of the total cellular cdc2 present in anti-cdc25 immunoprecipitates [8]: 5%

human cyclin B1 expressed as fusion protein with GST (from UniProt P14635 1-433)
amount of cyclin B1 at which activation of cdc25 A (10 pmoles) plateaus, RCML phosphatase assay [9]: 10 pmol | phosphatase activity of cdc25 A in the presence of p13 [9]: 8 fold | tyrosine phosphatase activity of cdc25 A against 32P-labelled RCML [9]: 4 fold

human cyclin B2 expressed as fusion protein with GST (from UniProt O95067 1-398)
tyrosine phosphatase activity of cdc25 A against 32P-labelled RCML [9]: 4 fold
